The results in this text go back to patent US20190389958A1, “ANTI-CXCR4 ANTIBODIES” (MSM Protein Technologies, Inc., priority 2017, published 2019).

The assay addresses human CXCR4 (human) (UniProt P61073). The assay can be described thus: flow cytometry, IgG 10 µg/mL, CXCR4-expressing Ramos (RA1) cells. Background: In flow cytometry, cells or beads pass a laser one at a time.

Sequence of human CXCR4 (human) (P61073 whole entry): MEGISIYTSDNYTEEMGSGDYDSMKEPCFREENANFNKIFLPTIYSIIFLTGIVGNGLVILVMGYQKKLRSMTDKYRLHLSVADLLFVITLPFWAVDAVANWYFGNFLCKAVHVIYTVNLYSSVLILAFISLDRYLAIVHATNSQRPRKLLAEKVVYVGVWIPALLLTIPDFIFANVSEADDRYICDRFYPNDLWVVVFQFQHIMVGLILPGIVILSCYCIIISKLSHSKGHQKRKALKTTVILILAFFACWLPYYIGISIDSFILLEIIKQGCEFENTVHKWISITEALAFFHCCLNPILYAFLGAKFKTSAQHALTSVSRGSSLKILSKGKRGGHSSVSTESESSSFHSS

In turn, “human isotypic IgG1 kappa control (Coger Sarl, Paris, France) (antibody)” displayed an MFI of 42.
